Experimental data: patent publication US20180117084A1

Target: full-length CTLA-4 (flCTLA-4) secreted by human dendritic cells on microvesicles/exosomes (human) (UniProt P16410)
Experiment: cell-based or functional assay

Sequence of UniProt P16410 (P16410 36-223 limits assumed): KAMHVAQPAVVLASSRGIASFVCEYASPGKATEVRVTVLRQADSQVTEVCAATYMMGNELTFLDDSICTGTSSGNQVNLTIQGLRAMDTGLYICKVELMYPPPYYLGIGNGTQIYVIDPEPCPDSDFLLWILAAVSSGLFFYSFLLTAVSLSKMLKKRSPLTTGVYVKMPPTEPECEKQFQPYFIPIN

Question: With “αHuman CTLA-4 clone BNI3 (cat #: 555851, BD Pharmingen) (antibody)” as the substance, how does the percentage of CFSE+ recipient DC after pre-clearance of supernatant with αCTLA-4 beads (20 minutes at 4 C, 0.1% sodium azide) read?
Answer: Its percentage of CFSE+ recipient DC after pre-clearance of supernatant with αCTLA-4 beads (20 minutes at 4 C, 0.1% sodium azide) is 45%.

Question: And the uptake of CFSE-labeled exosomes by unlabeled DC after incubation of supernatant with αCTLA-4 coated beads, antibody at 5 µg/ml?
Answer: The uptake of CFSE-labeled exosomes by unlabeled DC after incubation of supernatant with αCTLA-4 coated beads, antibody at 5 µg/ml was 26%.

Question: And the uptake of CFSE-labeled exosomes by unlabeled DC after incubation of supernatant with αCTLA-4 coated beads, antibody at 50 µg/ml?
Answer: The uptake of CFSE-labeled exosomes by unlabeled DC after incubation of supernatant with αCTLA-4 coated beads, antibody at 50 µg/ml was 35%.
